Results from patent publication US20220073643A1.
Numbering of substitutions follows the chain as printed. One block for each binder: values may come before it.

Target: Claudin18.2-His protein (human)
Test: indirect ELISA on coated Claudin18.2-His

EC50: 0.00918 µg/mL
B1: 406G3C4 (antibody, V domains shown)
VH: EIQLQQSGPELMKPGASVRISCKASGYSFISYYIYWVKQSHGKGLEWIGYIDPFNGNTNYNQKFKGKATLTVDRSSSTAYIHLNSLTSEDSAVYYCAIVNGYGRGAMDYWGQGTSVTVSS
VL: QIVLTQSPAIMSASPGEKVTMTCSASSSISYMHWYQQKSGTSPKRWIYDTSKLASGVPARFSGSGSGTSYSLTISSMEAEDAATYYCQQWSSNPLTFGDGTKLELK

EC50: 0.0153 µg/mL
B2: 392C2F10 (antibody, V domains shown)
VH: EVQLQQSGPELVKPGASMKISCKASGYSFTGYTMNWVKQSLGKNLEWIGLINPFNGGTTYNQKFKGKATLTVDKSSSTAYMELLSLTSDDSAVYYCTRGDYWGQGTTLTVSS
VL: DIVMTQSPSSLTVTAGEKVTMSCKSSQSLLNSGNQKNYLTWYQQKPGQPPKLLIYWASTRESGVPDRFAGSGSGTDFTLTISSVQAEDLAVYYCQSDYSYPTFGAGTKLELK

EC50: 0.0201 µg/mL
B3: 273C10E5 (antibody, V domains shown)
VH: QVQLQQSGAELVKPGASVKLSCKASGYTFTSFGINWLRQRPEQGLEWIGWIFPGDGNSKYNENFKGKATLTTDKSSSTAYMQVTRLTSEDSAVYFCARFYYGNSFANWGQGTLVTVSA
VL: DIVMTQSPSSLTVTAGEKVTMSCKSSQSLLNSGNQKNYLTWYQQKPGQPPKLLIYWAATRESGVPDRFAGSGSGTDFTLTISSVQAEDLAVYYCQNDYFYPFTFGAGTKLELK

EC50: 0.0232 µg/mL
B4: 292D9C7 (antibody, V domains shown)
VH: QVQLKESGPGLVAPSQSLSITCTVSGFSLTDYGVSWIRQPPGKGLEWLGVIWGGGNAYYNSALKSRLSISKDNSKSQVFLKMNSLRTDDTAMYYCAKNGLLRYLDYWGQGSTLTVSS
VL: B3 VL with I2T, A58S, A69T, T75R, A86V, V91I, F99Y, F102L, L110V

EC50: 0.126 µg/mL
B5: 407H12E6 (antibody, V domains shown)
VH: DVQLVESGGGLVQPGGSRKLSCAASGFTVSSFGMHWVRQAPEKGLEWVAYISSGSSPIYYADTVKGRFTISRDNPKNTLFLQMTSLRSEDTAIYFCARFYYGNSFDHWGQGTLVTVSA
VL: B3 VL with A15T, P49S, A58S, A69T, A86T, Y93F, D97N, Y100F, F102L

EC50: 0.0315 µg/mL
B6: 198F10B8 (antibody, V domains shown)
VH: QAYLQQSGAELVRSGASVRMSCKASGYTFSSYNMHWVKQTPGQGLEWIGYIYPGNGGTNYNQKFKDKATLTADTSSSTAFIQISSLTSEDSAVYFCLTGRGFAYWGQGTLVTVSA
VL: B3 VL with K18R, L30F, W56R, A58S, A69T, F99S, F102L, A106V

EC50: 0.012 µg/mL
B7: 280F3B6 (antibody, V domains shown)
VH: QAYLQQSGAELVRSGASVKMSCKASGYTFTSHNMHWVKQTPGQGLEWIGYIYPGNGGTNYNQKFKGKATLTADTSSSTAYMQISSLTSEDSAVYFCTRDYYGNSFAYWGQGTLVTVSA
VL: B3 VL with V13E, T14K, K18R, T20S, L30F, A58S, A69T, F99W

EC50: 0.0201 µg/mL
B8: 279E8B8 (antibody, V domains shown)
VH: B7 VH with M20I, T30A, N59K, K65T, T71S, M81L, T97A, Y101F, A106V
VL: B3 VL with V13E, T14K, T20S, S22R, A58S, A69T, E87D, F99M

EC50: 0.00443 µg/mL
B9: 395B3C11 (antibody, V domains shown)
VH: B5 VH with V29F, S31G, V37I, A40T, S56R, K65Q, I93M, A118S
VL: B3 VL with S10F, A58S, A69T, V91L, D97A, F99S, Y100F, F102L

EC50: 0.0156 µg/mL
B10: 370E2B12C3 (antibody, V domains shown)
VH: QVQLKESGPGLVAPSQSLSITCTVSGFSLTTYGVHWVRQPPGKGLEWLGVIWAGGSTNYNSALMSRVSINKDNSKSQVFIKMNSLQADDTALYYCARAAYYGNGLDYWGQGTTLTVSS
VL: B3 VL with S28T, A58S, R60G, A69T, Y93F, D97A, A106G, L112I

EC50: 0.00836 µg/mL
B11: 391F1G2 (antibody, V domains shown)
VH: B5 VH with V29F, I93M, F99I, D106A, H107Y
VL: B3 VL with T20A, S28T, I54L, A58S, A69T, D97A, F99Y, F102L, A106S

EC50: 0.0233 µg/mL
B12: 273F3D4 (antibody, V domains shown)
VH: QVQLKESGPGLVAPSQSLSITCTVSGFALTTYGVSWVRQPPGKGLEWLGVIWGDGSTHYHSALISRLSIRKDNSKSQVFLKLNSLQTDDTATYYCAKPGRGNAMDYWGQGTSVTVSS
VL: B3 VL with T5S, P49S, A58S, A69T, V84M, F99I, F102L, K109M

EC50: 0.0155 µg/mL
B13: 286C7F11 (antibody, V domains shown)
VH: B4 VH with G53N, G54R, A57T, K81R, R86Q, N98H, G99D, L100F, Y103F, S111T
VL: B3 VL with I2V, L52I, A58S, A69T, T78S, S82T, Q95L, F99Y, F102L

EC50: 0.0504 µg/mL
B14: 393C2C5 (antibody, V domains shown)
VH: B5 VH with V29F, I93M, R98T, D106A, H107Y
VL: B3 VL with S28T, P46S, A58S, A69T, D97A, F99S, F102V, A106S, L110V

EC50: 0.016 µg/mL
B15: 406F11G8 (antibody, V domains shown)
VH: B5 VH with V29F, P75S, I93M, F99I, D106A, H107Y
VL: B3 VL with T20A, S28T, A58S, A69T, D97A, F99Y, F102L, A106S

EC50: 0.021 µg/mL
B16: 392A11C8 (antibody, V domains shown)
VH: B5 VH with V29F, S31G, V37I, A40T, S56R, I93M
VL: B3 VL with S10F, K24R, A58S, A69T, V91L, D97A, F99S, Y100F, F102L

EC50: 0.0158 µg/mL
B17: 277F1F8 (antibody, V domains shown)
VH: B7 VH with A9P, Y52N, T58N, T97A, Y107F
VL: B3 VL with V13E, T20S, A58S, A69T, F99R, Y100F

EC50: 0.00955 µg/mL
B18: 406E1H7 (antibody, V domains shown)
VH: B5 VH with V29F, S31G, V37I, A40T, S56R, K65Q, I93M, A118S
VL: B3 VL with S10F, A58S, A69T, V91L, D97A, F99S, Y100F, F102L

EC50: 0.028 µg/mL
B19: 275B2G2 (antibody, V domains shown)
VH: EVMLVESGGGLVKPGGSLKLSCAASGFTFRDYTMSWVRQTPEKRLEWVATSIIGGTYTYYPDSVKGRFTISRDNVKNTLYLQMSSLRSEDTAMYYCSRLGRGNAMDYWGQGTSVTVSS
VL: B3 VL with A58S, A69T, F99S, A106S, L112I

EC50: 0.0162 µg/mL
B20: 391H11H3 (antibody, V domains shown)
VH: B5 VH with V29F, S31G, V37I, A40T, S56R, K65Q, I93M, A118S
VL: B3 VL with S10F, A58S, A69T, V91L, D97A, F99S, Y100F, F102L

EC50: 0.0245 µg/mL
B21: 275H9A2 (antibody, V domains shown)
VH: B7 VH with K23R, T28S, T58S, N59Y, T69I, A106V
VL: DVVMTQSPSSLTEKTGEKVSMSCKSSQSLLNSGNQKNYLTWYQQKPGQPPKLLIYWASTRESGVPDRFTGSGSGTDFTLTISSLQTEDLAVYYCQNNFRYPFTFGAGTKLELK

EC50: 0.0192 µg/mL
B22: 196A12B10 (antibody, V domains shown)
VH: QIQWVQSGPELKKPRETVKISCKASGYTFTDYSMHWVKQAPGKGLKWMGWINSETGEATYADDFRGRFALSLETSATTAFLQINSLKNEDTGTYFCARFYYGNSFASWGQGTTLTVSS
VL: DIVMTQFPSSLTVTAGEKVTMTCKSSQSLLNGGNQKNYLTWYQQKPGLPPKLLIYWASTRESGVPDRFTGSGSGTEFTLTISSVQAEDLAVYYCQNNYYFPLTFGAGTKLELK

EC50: 0.00846 µg/mL
B23: 394C2G5 (antibody, V domains shown)
VH: B5 VH with V29F, S31G, V37I, A40T, I51V, S56R, I93M
VL: DIVMTQSPSFLTVTAGEKVTMSCKSSQSLLNSGNQKNYLTWYQQKPGQPPKLLIYWASTRESGVPDRFTGSGSGTDFTLTINNVQAEDLALYYCQNAYSFPLTFGAGTKLELT

EC50: 0.00199 µg/mL
B24: 405G8F11 (antibody, V domains shown)
VH: B5 VH with A23V, A24T, V29F, T84S, I93M, D106A, H107Y
VL: DIVMTQSPSSLTVTAGEKVTMNCKSSQSLLNSGNQKNYLTWYQQKLGQPPKLLMYWASTRESGVPDRFTGSGSGTDFTLTISSVQAEDLAVYFCQSAFSYPLTFGAGTKLELK

EC50: 0.017 µg/mL
B25: 407E11H8 (antibody, V domains shown)
VH: B5 VH with V29F, S31D, V37I, A40T, S56R, I93M, A97V, Y101F
VL: B23 VL with S22T, K24R, S28N, Q35L, Y55S, N82S, N83S, A86P, T113K

EC50: 0.00554 µg/mL
B26: 407A8G10 (antibody, V domains shown)
VH: B5 VH with V29F, S31G, V37I, A40T, S56R, I93M
VL: B23 VL with K24R, K36R, T78A, N82S, N83S, T113K
